The values that follow are results of earlier work, collected in publication PMC7109197.

Where two headings read alike, the source gives them in different places. Bounds are passed on as bounds.

What is called Kd is the equilibrium constant for the complex coming apart.

What all share (test): NMR
Series [1] addresses cardiac troponin C N-domain (Homo sapiens) (UniProt P63316).
Series [2] shares this target. The source holds these as a separate data set.
Series [3] deals with cardiac troponin C CTD (Homo sapiens) (UniProt P63316).
Series [4] shares this target. The source holds these as a separate data set.

Take “cTnI switch peptide switch peptide (from UniProt P19429)”: the figures for the equilibrium dissociation constant (Kd) in series [1] and in series [2] were 600 µM and 370 µM, respectively.
With “cardiac troponin I 34-71 (from UniProt P19429)”, the dissociation constant (Kd) is 3 µM in series [3] and under 1 µM in series [4].
